# Laboratory results as given in patent US20220298258A1 (Bristol-Myers Squibb, published 2022).
# T1: fluorescently-conjugated human VISTA dextramer (a streptavidin dextramer loaded with monobiotinylated … (human, UniProt Q9H7M9 33-194, monobiotinylated (avi-tagged in Example 6); loaded on a fluorescently-conjugated streptavidin dextramer)
# T1 construct: Multimeric reagent: many biotinylated VISTA molecules on a streptavidin dextramer; also called VISTA dextramers; dextramer loaded with recombinant human avi-tagged VISTA
# T1 sequence (looked up): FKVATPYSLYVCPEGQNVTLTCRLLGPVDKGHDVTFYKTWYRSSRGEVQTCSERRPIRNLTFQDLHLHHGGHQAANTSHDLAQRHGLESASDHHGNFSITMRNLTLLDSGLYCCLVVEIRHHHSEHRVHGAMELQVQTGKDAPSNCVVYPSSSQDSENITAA
# Key:
# [1] = target: Human PSGL-1 (P-Selectin Glycoprotein Ligand 1) on primary human T cells / PBMC lymphocytes (human) (UniProt Q14242); experiment: flow cytometry; inhibition of VISTA dextramer binding to activated human CD4+ T cells, pH 6.0
# [2] = target: T1, fluorescently-conjugated human VISTA …; experiment: as above
# Procedure: The ability of soluble PSGL-1 to disrupt VISTA dextramer binding to T cells was assessed by incubating activated T cells with fluorescently-conjugated VISTA dextramers (a streptavidin dextramer loaded with a sub-optimal molar ratio of monobiotinylated recombinant human VISTA molecules) in Hanks's Balanced Salt Solution at pH 6.0 and in the presence of titrated concentrations of a control (i.e., non-VISTA or PSGL-1 specific) antibody (dots), recombinant human PSGL-1-Fc fusion protein (triangles), or recombinant human P-selectin (R&D Systems, diamonds). The recombinant human PSGL-1 Fc fusion molecule was obtained from R&D Systems Catalog No. 3345-PS, and comprises the PSGL-1 ECD sequence shown in SEQ ID NO: 18, comprising positions 42-295 of a human PSGL-1 sequence of accession number AA50061 coupled at its C-terminal to an IEGRMD linker sequence (SEQ ID NO: 19) followed by amino acids P100 to K330 of human IgG1. After incubation, the binding of the VISTA dextramer to the T cells was measured by flow cytometry. IC50 values were calculated via nonlinear regression in Prism software (GraphPad). The results, which are shown in FIG. 3 and Table 1, indicate that PSGL-1 and P-selectin inhibit binding of VISTA to the activated CD4+ T cells in a dose dependent manner at acidic pH.
Molecule,IC50 [1],IC50 [2]
recombinant human P-selectin (R&D Systems) (from UniProt P16109 42-771) (receptor),101 nM,–
"recombinant human PSGL-1-Fc fusion protein (R&D Systems Catalog No. 3345-PS) (Fc fusion, Bought reagent; also called hPSGL-1-Fc; humPSGL-1-Fc; not shown: human IgG1, amino acids P100 to K330) QATEYEYLDYDFLPETEPPEMLRNSTDTTPLTGPGTPESTTVEPAARRSTGLDAGGAVTELTTELANMGNLSTDSAAMEIQTTQPAATEAQTTPLAATEAQTTRLTATEAQTTPLAATEAQTTPPAATEAQTTQPTGLEAQTTAPAAMEAQTTAPAAMEAQTTPPAAMEAQTTQTTAMEAQTTAPEATEAQTTQPTATEAQTTPLAAMEALSTEPSATEALSMEPTTKRGLFIPFSVSSVTHKGIPMAASNLSVIEGRMD",–,20.5 nM
